From the supplement of paper PMC7877785
± gives the uncertainty stated by the source.

Test: self-splicing fitness, log relative to wild type (ln ratio); higher = more splicing; Tetrahymena group I intron in knt gene, E. coli kanamycin selection, DiMSum; sequences stand for … in CUCUCU…GGAGGGAAAAGUUAUCAGGCAUGCACCUGGUAGCUAGUCUUUAAACCAAUAGAUUGCAUCGGUUUAAAAGGCAAGACCGUCAAAUUGCGGGAAAGGGGUCAACAGCCGUUCAGUACCAAGUCUCAGGGGAAACUUUGAGAUGGCCUUGCAAAGGGUAUGGUAAUAAGCUGACGGACAUGGUCCUAACCACGCAGCCAAGUCCUAAGUCAACAGAUCUUCUGUUGAUAUGGAUGCAGUUCACAGACUAAAUGUCGGUCGGGGAAGAUGUAUUCUUCUCAUAAGAUAUAGUCGGACCUCUCCUUAAUGGGAGCUAGCGGAUGAAGUGAUGCAACACUGGAGCCGCUGGGAACUAAUUUGUAUGCGAAAGUAUAUUGAUUAGUUUUGGAGUACUCGUGGUCG
Summary of the method: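 DiMSum derived fitness as the error-weighted combination of fold changes across replicates, kanamycin versus no kanamycin, normalised to wild type. E. coli BL21(DE3) held the library, which randomised all eight P1ex-region intron nucleotides within the knt kanamycin-resistance gene on pET-22b(+). Six replicate transformations grew overnight at 37°C or 30°C on LB agar with or without 25 μg/mL kanamycin, also containing 100 μg/mL carbenicillin, 50 μM IPTG and 0.2% rhamnose, and pooled colonies were amplicon-sequenced on an Illumina HiSeq 2500.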

Row | Sequence | self-splicing fitness (ln) (30 °C) | self-splicing fitness (ln) (37 °C)
1 | ACCGAGCAAUAUUACGACCU | -1.75 ± 0.11 | -0.53 ± 0.12
2 | ACCGAGCAAUAUUACGAGGC | -4.59 ± 0.29 | -3.23 ± 0.33
3 | ACCGAGCAAUAUUACGAUAC | -4.32 ± 0.36 | -2.09 ± 0.27
4 | ACCGAGCAAUAUUACGCACA | -2.47 ± 0.11 | -1.67 ± 0.11
5 | ACCGAGCAAUAUUACGCCCA | -1.68 ± 0.29 | -3.03 ± 0.3
6 | ACCGAGCAAUAUUACGCCUC | -2.87 ± 0.19 | -2.36 ± 0.22
7 | ACCGAGCAAUAUUACGCGCU | -2.81 ± 0.17 | -1.19 ± 0.19
8 | ACCGAGCAAUAUUACGCUAG | -2.62 ± 0.22 | -1.44 ± 0.21
9 | ACCGAGCAAUAUUACGGAGG | -3.01 ± 0.2 | -2.72 ± 0.23
10 | ACCGAGCAAUAUUACGGAUA | -2.8 ± 0.35 | -2.33 ± 0.27
11 | ACCGAGCAAUAUUACGGCUC | -4.07 ± 0.39 | -1.54 ± 0.35
12 | ACCGAGCAAUAUUACGGCUU | -2.63 ± 0.12 | -1.14 ± 0.13
13 | ACCGAGCAAUAUUACGGGUA | -2.6 ± 0.16 | -0.706 ± 0.13
14 | ACCGAGCAAUAUUACGUCGU | -3.09 ± 0.13 | -1.04 ± 0.11
15 | ACCGAGCAAUAUUACGUGAG | -2.27 ± 0.091 | -0.997 ± 0.091
16 | ACCGAGCAAUAUUACGUUAA | -3 ± 0.13 | -2.7 ± 0.14
17 | ACCGAGCAAUAUUACGUUAG | -4.03 ± 0.15 | -2.65 ± 0.15
18 | ACCGAGCAAUAUUACGUUGU | -3.67 ± 0.17 | -1.5 ± 0.12
19 | ACCUAGCAAUAUUACGAAGU | -3.53 ± 0.19 | -2.72 ± 0.19
20 | ACCUAGCAAUAUUACGACUC | -0.748 ± 0.088 | -0.405 ± 0.098
21 | ACCUAGCAAUAUUACGAGGG | -3.45 ± 0.17 | -1.4 ± 0.12
22 | ACCUAGCAAUAUUACGAUGA | -1.21 ± 0.091 | -0.609 ± 0.1
23 | ACCUAGCAAUAUUACGCACA | -0.931 ± 0.078 | -0.476 ± 0.079
24 | ACCUAGCAAUAUUACGCUAA | -2.61 ± 0.23 | -1.32 ± 0.16
25 | ACCUAGCAAUAUUACGGAAG | -2.8 ± 0.23 | -2.38 ± 0.19
26 | ACCUAGCAAUAUUACGGAGA | -1.83 ± 0.17 | -2.45 ± 0.2

Row | Sequence | self-splicing fitness (ln) (30 °C) | self-splicing fitness (ln) (37 °C)
27 | ACCUAGCAAUAUUACGGCCU | -0.404 ± 0.069 | -0.963 ± 0.075
28 | ACCUAGCAAUAUUACGGCGC | -0.607 ± 0.097 | 0.63 ± 0.13
29 | ACCUAGCAAUAUUACGGGAC | -1.87 ± 0.17 | -1.36 ± 0.18
30 | ACCUAGCAAUAUUACGGUGG | -4 ± 0.16 | -3.02 ± 0.15
31 | ACCUAGCAAUAUUACGUAAU | -1.28 ± 0.049 | -0.573 ± 0.066
32 | ACCUAGCAAUAUUACGUAUG | -2.71 ± 0.097 | -1.61 ± 0.099
33 | ACCUAGCAAUAUUACGUAUU | -1.84 ± 0.075 | -1.71 ± 0.11
34 | ACCUAGCAAUAUUACGUCAU | -2.11 ± 0.12 | -1.63 ± 0.12
35 | ACCUAGCAAUAUUACGUCUU | -0.806 ± 0.064 | -0.667 ± 0.075
36 | ACCUAGCAAUAUUACGUGUA | -2.84 ± 0.099 | -1.45 ± 0.075
37 | ACCUAGCAAUAUUACGUUCU | -1.08 ± 0.1 | -0.757 ± 0.1
38 | ACGAAGCAAUAUUACGACCU | 0.0549 ± 0.12 | 0.126 ± 0.13
39 | ACGAAGCAAUAUUACGACUU | -0.832 ± 0.058 | 0.00574 ± 0.081
40 | ACGAAGCAAUAUUACGAGAC | -2.39 ± 0.38 | –
41 | ACGAAGCAAUAUUACGAUAU | -3.39 ± 0.14 | -2.03 ± 0.14
42 | ACGAAGCAAUAUUACGAUUU | -1.28 ± 0.094 | -0.317 ± 0.1
43 | ACGAAGCAAUAUUACGCCAG | -2.08 ± 0.19 | -1.72 ± 0.3
44 | ACGAAGCAAUAUUACGCCGU | -3.86 ± 0.37 | -1.57 ± 0.23
45 | ACGAAGCAAUAUUACGCCUU | -2.57 ± 0.14 | -0.89 ± 0.13
46 | ACGAAGCAAUAUUACGCGGA | -1.96 ± 0.17 | -1.33 ± 0.13
47 | ACGAAGCAAUAUUACGCGUG | -1.13 ± 0.051 | -0.442 ± 0.074
48 | ACGAAGCAAUAUUACGCUCA | -0.808 ± 0.11 | 0.223 ± 0.17
49 | ACGAAGCAAUAUUACGCUCG | -1.53 ± 0.14 | -1.17 ± 0.17
50 | ACGAAGCAAUAUUACGCUGU | -2.16 ± 0.13 | -0.576 ± 0.11
51 | ACGAAGCAAUAUUACGGCAG | -2.17 ± 0.13 | -1.58 ± 0.14
52 | ACGAAGCAAUAUUACGGCGA | -0.157 ± 0.087 | 0.0766 ± 0.12

Row | Sequence | self-splicing fitness (ln) (30 °C) | self-splicing fitness (ln) (37 °C)
53 | ACGAAGCAAUAUUACGGCGU | -2.47 ± 0.09 | -1.74 ± 0.11
54 | ACGAAGCAAUAUUACGGGAA | -3.09 ± 0.19 | -1.31 ± 0.13
55 | ACGAAGCAAUAUUACGUACU | -0.484 ± 0.064 | -0.0153 ± 0.089
56 | ACGAAGCAAUAUUACGUCCA | -0.408 ± 0.12 | -0.457 ± 0.13
57 | ACGAAGCAAUAUUACGUUGC | -3.45 ± 0.17 | -1.8 ± 0.16
58 | ACGCAGCAAUAUUACGAACC | -1.99 ± 0.16 | -0.986 ± 0.26
59 | ACGCAGCAAUAUUACGAAGC | -3.38 ± 0.24 | -1.6 ± 0.28
60 | ACGCAGCAAUAUUACGAAGG | -2.61 ± 0.13 | -1.3 ± 0.14
61 | ACGCAGCAAUAUUACGAGAU | -3.32 ± 0.14 | -2.68 ± 0.18
62 | ACGCAGCAAUAUUACGAGUA | -3.72 ± 0.33 | -3.07 ± 0.27
63 | ACGCAGCAAUAUUACGAUGU | -2.13 ± 0.057 | -1.16 ± 0.078
64 | ACGCAGCAAUAUUACGCAUU | -3.81 ± 0.19 | -1.89 ± 0.12
65 | ACGCAGCAAUAUUACGCCGC | -3.68 ± 0.29 | -2.42 ± 0.25
66 | ACGCAGCAAUAUUACGCCUU | -0.484 ± 0.082 | 0.1 ± 0.095
67 | ACGCAGCAAUAUUACGCGAC | -2.01 ± 0.15 | -2.24 ± 0.21
68 | ACGCAGCAAUAUUACGCGUC | -4.42 ± 0.17 | -2.18 ± 0.14
69 | ACGCAGCAAUAUUACGCGUU | -3.56 ± 0.14 | -2.42 ± 0.18
70 | ACGCAGCAAUAUUACGCUUU | -1.69 ± 0.079 | -1.15 ± 0.11
71 | ACGCAGCAAUAUUACGGCGA | -0.895 ± 0.1 | -0.0901 ± 0.14
72 | ACGCAGCAAUAUUACGGGGC | -3.8 ± 0.24 | -3.15 ± 0.28
73 | ACGCAGCAAUAUUACGGUCG | -0.525 ± 0.055 | -0.355 ± 0.072
74 | ACGCAGCAAUAUUACGUCAA | -3.09 ± 0.2 | -2.57 ± 0.15
75 | ACGCAGCAAUAUUACGUCAG | -2.75 ± 0.12 | -3 ± 0.19
76 | ACGCAGCAAUAUUACGUCUC | -3.88 ± 0.13 | -0.606 ± 0.084
